Test results as given in PMC10164591, “RNA binding proteins Smaug and Cup induce CCR4–NOT-dependent deadenylation of the nanos mRNA in a reconstituted system”.

What was measured:
MBP-Cup NM = target: T1, MBP-Cup NM (Drosophila melanogaster, UniProt Q9VMA3 1-770); assay: UV crosslinking; UV crosslinking: 16 mM HEPES pH 7.6, 50 mM K acetate, 1 mM Mg acetate, 0.8 mM ATP, 0.24 mg/ml yeast tRNA, 1 mM DTT, 10% glycerol, room temp; EMSA: deadenylation buffer with tRNA (omitted for A70 PABPC), 5% glycerol, 25 C; details: protein: recombinant; tags: N-terminal MBP; label: 5'-32P
T1 sequence: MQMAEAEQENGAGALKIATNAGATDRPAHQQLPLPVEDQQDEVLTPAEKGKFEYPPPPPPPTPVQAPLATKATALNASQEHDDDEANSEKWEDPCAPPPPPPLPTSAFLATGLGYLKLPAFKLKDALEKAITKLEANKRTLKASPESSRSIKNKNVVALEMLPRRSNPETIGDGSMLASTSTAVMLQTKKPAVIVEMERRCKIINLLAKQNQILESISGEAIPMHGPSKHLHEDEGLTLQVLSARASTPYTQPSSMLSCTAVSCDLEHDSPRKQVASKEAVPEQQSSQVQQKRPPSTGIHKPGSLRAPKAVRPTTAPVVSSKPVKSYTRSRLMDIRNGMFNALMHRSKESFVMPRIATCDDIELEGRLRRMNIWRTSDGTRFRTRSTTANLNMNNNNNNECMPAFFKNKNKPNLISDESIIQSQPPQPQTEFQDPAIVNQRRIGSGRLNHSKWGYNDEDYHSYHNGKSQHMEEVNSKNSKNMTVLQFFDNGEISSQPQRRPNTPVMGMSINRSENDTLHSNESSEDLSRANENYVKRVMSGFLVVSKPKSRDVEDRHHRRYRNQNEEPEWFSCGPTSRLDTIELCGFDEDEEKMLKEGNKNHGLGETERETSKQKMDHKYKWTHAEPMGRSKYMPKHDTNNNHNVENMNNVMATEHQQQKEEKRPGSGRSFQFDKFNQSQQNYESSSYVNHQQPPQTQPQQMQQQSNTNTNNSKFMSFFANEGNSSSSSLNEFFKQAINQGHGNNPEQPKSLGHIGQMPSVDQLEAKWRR

MBP-Cup M = target: T2, MBP-Cup M (Drosophila melanogaster, UniProt Q9VMA3 418-770); assay: as above; details: protein: recombinant; tags: N-terminal MBP; label: 5'-32P
T2 sequence: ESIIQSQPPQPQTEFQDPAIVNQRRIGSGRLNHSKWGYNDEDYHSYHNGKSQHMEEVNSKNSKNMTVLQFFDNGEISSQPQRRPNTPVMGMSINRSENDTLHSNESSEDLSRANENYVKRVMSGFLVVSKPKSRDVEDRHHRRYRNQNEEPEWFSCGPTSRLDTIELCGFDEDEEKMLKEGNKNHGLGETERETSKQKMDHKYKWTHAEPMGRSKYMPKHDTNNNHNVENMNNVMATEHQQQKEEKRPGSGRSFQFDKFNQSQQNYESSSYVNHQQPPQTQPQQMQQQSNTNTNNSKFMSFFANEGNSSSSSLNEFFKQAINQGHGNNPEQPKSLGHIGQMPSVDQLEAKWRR

MBP-Cup MC = target: T3, MBP-Cup MC (Drosophila melanogaster, UniProt Q9VMA3 418-1117); assay: as above; details: protein: recombinant; tags: N-terminal MBP; label: 5'-32P
T3 sequence: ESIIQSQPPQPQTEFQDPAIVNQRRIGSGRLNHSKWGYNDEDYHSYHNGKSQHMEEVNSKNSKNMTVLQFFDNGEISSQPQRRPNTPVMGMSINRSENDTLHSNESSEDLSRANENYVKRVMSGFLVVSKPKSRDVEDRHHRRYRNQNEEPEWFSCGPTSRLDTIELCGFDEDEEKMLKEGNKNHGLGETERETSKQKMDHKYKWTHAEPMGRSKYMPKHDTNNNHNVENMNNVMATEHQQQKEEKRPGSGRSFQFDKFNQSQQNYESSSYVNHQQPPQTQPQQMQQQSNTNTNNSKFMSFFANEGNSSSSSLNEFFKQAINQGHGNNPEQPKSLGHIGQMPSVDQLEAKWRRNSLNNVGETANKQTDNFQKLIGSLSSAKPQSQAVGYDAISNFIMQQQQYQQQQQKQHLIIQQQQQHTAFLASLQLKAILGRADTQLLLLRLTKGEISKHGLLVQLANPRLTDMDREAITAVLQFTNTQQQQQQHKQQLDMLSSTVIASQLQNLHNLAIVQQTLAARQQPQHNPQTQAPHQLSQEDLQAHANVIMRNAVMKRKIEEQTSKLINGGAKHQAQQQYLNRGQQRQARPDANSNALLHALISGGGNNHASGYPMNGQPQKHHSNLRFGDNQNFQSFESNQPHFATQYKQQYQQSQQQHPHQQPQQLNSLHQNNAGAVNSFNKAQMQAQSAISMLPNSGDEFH

MBP-Cup C = target: T4, MBP-Cup C (Drosophila melanogaster, UniProt Q9VMA3 771-1117); assay: as above; details: protein: recombinant; tags: N-terminal MBP; label: 5'-32P
T4 sequence: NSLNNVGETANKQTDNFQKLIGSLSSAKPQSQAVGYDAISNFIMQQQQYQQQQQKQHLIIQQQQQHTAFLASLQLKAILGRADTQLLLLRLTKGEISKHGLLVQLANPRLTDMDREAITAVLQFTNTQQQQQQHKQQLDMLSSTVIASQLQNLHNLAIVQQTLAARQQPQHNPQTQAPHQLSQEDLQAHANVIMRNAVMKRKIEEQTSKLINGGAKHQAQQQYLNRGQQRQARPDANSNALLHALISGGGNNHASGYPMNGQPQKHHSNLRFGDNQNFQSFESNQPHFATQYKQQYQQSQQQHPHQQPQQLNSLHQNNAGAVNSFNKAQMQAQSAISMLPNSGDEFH

MBP-Cup N = target: T5, MBP-Cup N (Drosophila melanogaster, UniProt Q9VMA3 1-417); assay: as above; details: protein: recombinant; tags: N-terminal MBP; label: 5'-32P
T5 sequence: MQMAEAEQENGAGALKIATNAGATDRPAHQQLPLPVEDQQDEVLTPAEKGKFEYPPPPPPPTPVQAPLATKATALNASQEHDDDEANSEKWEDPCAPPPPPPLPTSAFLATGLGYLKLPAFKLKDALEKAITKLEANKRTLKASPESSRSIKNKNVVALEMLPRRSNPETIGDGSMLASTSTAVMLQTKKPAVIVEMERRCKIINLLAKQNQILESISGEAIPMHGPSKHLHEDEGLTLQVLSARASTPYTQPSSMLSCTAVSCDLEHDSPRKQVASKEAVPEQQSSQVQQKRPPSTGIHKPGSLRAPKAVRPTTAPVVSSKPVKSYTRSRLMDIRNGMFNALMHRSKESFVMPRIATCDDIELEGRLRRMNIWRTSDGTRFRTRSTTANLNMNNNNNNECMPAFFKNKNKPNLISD

His8-MBP-Cup C = target: T6, His8-MBP-Cup C (Drosophila melanogaster, UniProt Q9VMA3 771-1117); assay: UV crosslinking + Ni-NTA pull-down; 6 M urea wash; UV crosslinking: 16 mM HEPES pH 7.6, 50 mM K acetate, 1 mM Mg acetate, 0.8 mM ATP, 0.24 mg/ml yeast tRNA, 1 mM DTT, 10% glycerol, room temp; EMSA: deadenylation buffer with tRNA (omitted for A70 PABPC), 5% glycerol, 25 C; details: protein: recombinant; tags: N-terminal His8-MBP; label: 5'-32P
T6 sequence: T4 sequence

His8-MBP-Cup M = target: T7, His8-MBP-Cup M (Drosophila melanogaster, UniProt Q9VMA3 418-770); assay: as above; details: protein: recombinant; tags: N-terminal His8-MBP; label: 5'-32P
T7 sequence: T2 sequence

His8-MBP-Cup full length = target: T8, His8-MBP-Cup full length (Drosophila melanogaster, UniProt Q9VMA3 1-1117); assay: as above; details: protein: recombinant; tags: N-terminal His8-MBP; label: 5'-32P
T8 sequence: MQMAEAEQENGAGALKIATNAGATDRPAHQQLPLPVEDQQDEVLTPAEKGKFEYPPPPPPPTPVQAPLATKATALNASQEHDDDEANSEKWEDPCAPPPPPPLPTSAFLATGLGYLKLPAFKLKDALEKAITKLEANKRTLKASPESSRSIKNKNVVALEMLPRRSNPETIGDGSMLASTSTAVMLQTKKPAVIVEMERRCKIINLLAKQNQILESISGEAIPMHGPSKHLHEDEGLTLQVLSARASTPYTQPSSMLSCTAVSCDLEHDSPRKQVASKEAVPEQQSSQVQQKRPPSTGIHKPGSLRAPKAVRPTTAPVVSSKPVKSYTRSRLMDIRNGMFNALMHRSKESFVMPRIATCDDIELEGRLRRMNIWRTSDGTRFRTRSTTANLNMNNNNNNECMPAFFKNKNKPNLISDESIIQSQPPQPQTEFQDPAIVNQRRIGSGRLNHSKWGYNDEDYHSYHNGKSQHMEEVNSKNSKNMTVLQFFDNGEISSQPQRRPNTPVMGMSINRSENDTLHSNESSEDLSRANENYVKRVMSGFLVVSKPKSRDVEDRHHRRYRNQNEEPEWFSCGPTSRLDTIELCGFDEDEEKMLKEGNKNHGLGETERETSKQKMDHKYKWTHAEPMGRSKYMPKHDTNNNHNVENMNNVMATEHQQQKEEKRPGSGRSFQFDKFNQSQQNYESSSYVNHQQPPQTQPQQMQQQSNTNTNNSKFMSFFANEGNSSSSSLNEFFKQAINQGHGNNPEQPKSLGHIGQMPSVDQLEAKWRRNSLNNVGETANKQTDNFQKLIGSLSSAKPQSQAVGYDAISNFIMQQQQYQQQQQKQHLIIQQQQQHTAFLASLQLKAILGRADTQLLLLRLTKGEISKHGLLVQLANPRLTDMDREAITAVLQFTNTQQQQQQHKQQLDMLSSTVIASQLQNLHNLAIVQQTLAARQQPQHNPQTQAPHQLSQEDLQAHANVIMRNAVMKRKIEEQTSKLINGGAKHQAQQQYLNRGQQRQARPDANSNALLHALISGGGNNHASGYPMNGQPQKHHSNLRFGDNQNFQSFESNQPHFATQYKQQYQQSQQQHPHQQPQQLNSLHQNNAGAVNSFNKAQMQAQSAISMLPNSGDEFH

His8-MBP-Cup MC = target: T9, His8-MBP-Cup MC (Drosophila melanogaster, UniProt Q9VMA3 418-1117); assay: as above; details: protein: recombinant; tags: N-terminal His8-MBP; label: 5'-32P
T9 sequence: T3 sequence

Measured: binding result

B1: 18nt RNA oligonucleotide (ssRNA)
RNA: GGGUUUAGUGCGCACGUG
binds: all assays above
